Results as given in the DeepSol protein solubility set.

experiment: soluble on expression in E. coli; label from the status in PepcDB or PDB records

Row | Sequence | soluble on expression in E. coli
1 | MSRLTELLRQVRKADAQLGTDLEAEVAALTKRRTFGLVFEQHQPEAVELPGRVVRRGDKVRVLPPRGGTKAGDQRLWRTTRIECVDGQRVAHLAELDVEEPETRAVLADDVVVVAEFRDRIYPGLVETGRVERGGDKPFHTVVNAENYHALEMLTYTHRHSIDAIYIDPPYNTGARDWKYDNDYVASDDDYRHSKWLAFMERRLKICRELMRSDATLVATIDEHEVNRLGVLLDQLFPESTRQLVTIVNNPKGVTQGYLSRVEEYAFFVFGPDARIGSVDDDLLTHRDMADAEGELQRPRWKGLLRSGDDSLRADRKDMFYPVWFDESTGRLSHAGEALPLDETPDFSPQDGLTPIWPIRRDMKEGPTRAAPRRSILDYALHPHL | not soluble
2 | MSRSSVTGKEFVIRYVFNDVSNMNENDMRISTVEEYFNVPWIFQIQRNNGNLGIYLRCRKLKGQEMWSMFTELELKLISVYSDTRDQKCKTDMCFGHDSGKFYSSYGWSEFISWNELETSFMDAGSITVEARVIINKSIGFYTPKLMNFDEKKKEYSDIVVLVDGQRFYLLKKFLAFHSTFFESLFLGGFYEAKLTEVPLYDIDVDDFQKFLEVLYGFPVINDNTVEGILLLADMYQTPLVSELCEDFLIQTTGKTYKKKLQMAIKFNLENLKQFCISMIKSPFDLRSMIPSDISSIDHSTLAALFTKSLTLMK | not soluble
3 | MSRVSTAPSGKPTAAHALLSRLRDHGVGKVFGVVGREAASILFDEVEGIDFVLTRHEFTAGVAADVLARITGRPQACWATLGPGMTNLSTGIATSVLDRSPVIALAAQSESHDIFPNDTHQCLDSVAIVAPMSKYAVELQRPHEITDLVDSAVNAAMTEPVGPSFISLPVDLLGSSEGIDTTVPNPPANTPAKPVGVVADGWQKAADQAAALLAEAKHPVLVVGAAAIRSGAVPAIRALAERLNIPVITTYIAKGVLPVGHELNYGAVTGYMDGILNFPALQTMFAPVDLVLTVGYDYAEDLRPSMWQKGIEKKTVRISPTVNPIPRVYRPDVDVVTDVLAFVEHFETATASFGAKQRHDIEPLRARIAEFLADPETYEDGMRVHQVIDSMNTVMEEAAEPGEGTIVSDIGFFRHYGVLFARADQPFGFLTSAGCSSFGYGIPAAIGAQMARPDQPTFLIAGDGGFHSNSSDLETIARLNLPIVTVVVNNDTNGLIELYQNIGHHRSHDPAVKFGGVDFVALAEANGVDATRATNREELLAALRKGAELGRPFLIEVPVNYDFQPGGFGALSI | soluble
4 | MSRVVLNVDSYEGNDTPSAEIARFVVLYGKASTRKHKIWEGDGLLVCFTDSCLLKSEDERDVICRSSALKGLDQLEDGRIINIGSWSVEIQERIATGPPQKPISAQKPEIQSPMPPMTPGNSENVENRKRGGFSSPFLGIELPKPLSKRSATFVPPLIGSESSSSGGSSSSTIQEKIPPFILNEQDILDRKTTSAVTVDTRFARHLRPHQKSGIQFIFDRLRRGSGKNGGGGGAILADDMGLGKSLQTMAATWALLKGSKTAQQLANSCLIIVPSSLVNNWKAEFDKWWRLMRFPAVIALTANDITTYQSTIKLMPYLVISYDLAQRHVEKLKIIRFDVMVCDEGHKLKNLDGKLRKTLLSLEIPRRLILTGTPMQNDFEEFYSLLDFVRPSVFGSIVEFRKMCSDRPEQLNELIDECMLRRTAADVDLKHLPEKHEYILFCAASPIQKHVHSEICDYMTGDALSLIFFARQLANHPKLLLDNLREKTEKSKAHKHSPLLLAFDGAHMPRGGVKESGKLTALVDMIKCFRLLQECTVIVSNYIETLDMIQQLCEYLNFKVLRLDGKTQVPDRQKLVRTFNDHRDPSNIFLLSTKAGGVGLNLIGASRLVLFDSDWNPANDQQAMARIWRDGQVRPCHIYRLITTGTIEEKMLQRQIKKTGLGCVIDAIEVGDTIATFTDEDLKDIFTFTGSATECNTHDLCECPCDGCGMLENEMDEEDDGDDVVENDAEKIDKSGKIDKIDSDDDEEADDEELEADVTDEVVEDSQEPPEATKPAVAAAGLRTIASLAELSRWRHFSPRHADTWHHFMTNAGLSQVDTDVELTFAFYQESQY | not soluble
5 | MSSAAQAYARTAQRTASPREIEAQALLKAAKQLQDVVTNWEEKGAIGLQEALLFNRKLWSIFVTEAMRDDNPQSIEIRQNIANIGVFVMSQSSALQIKPEVERLQALIDINRNIAAGLSGRP | not soluble
6 | MSSDSDSDFGKEASKTPKRRITDCLFDSDDEVLESPGREELRKLLLSDYEDVGSVTIDTPKLKNRNVRLRGAGRPQKGGDDYKDYGRSEMEQFLRLVSDKPFLWHTKDSDFHRKKEKGMPAWAEIERTCNTFMGKGRTPGKTAAALFKKMATTYKSHLTRIQKAPSGSAVTPKKDLFCYAELMSFMDEDITHRAPTCSFIVGAGPDVDVLPTETSSSKKK | not soluble
7 | MSSGLEDNLQLLGGNVTLLEQEAQKLANETKAGVYVVTTDSSTPASQMAKTYLADKVGAKNNGVVLVINMNLRKVYIWATGNLKYYLPSSRIEKTLDIVQPELTDNNYYQAVSGFFDQVSKYYQAGLEHHHHHH | not soluble
8 | MSSISLKEIIPPQPSTQRNFTTHLSYDPTTNAIAYPCGKSAFVRCLDDGDSKVPPVVQFTGHGSSVVTTVKFSPIKGSQYLCSGDESGKVIVWGWTFDKESNSVEVNVKSEFQVLAGPISDISWDFEGRRLCVVGEGRDNFGVFISWDSGNSLGEVSGHSQRINACHLKQSRPMRSMTVGDDGSVVFYQGPPFKFSASDRTHHKQGSFVRDVEFSPDSGEFVITVGSDRKISCFDGKSGEFLKYIEDDQEPVQGGIFALSWLDSQKFATVGADATIRVWDVTTSKCVQKWTLDKQQLGNQQVGVVATGNGRIISLSLDGTLNFYELGHDEVLKTISGHNKGITALTVNPLISGSYDGRIMEWSSSSMHQDHSNLIVSLDNSKAQEYSSISWDDTLKVNGITKHEFGSQPKVASANNDGFTAVLTNDDDLLILQSFTGDIIKSVRLNSPGSAVSLSQNYVAVGLEEGNTIQVFKLSDLEVSFDLKTPLRAKPSYISISPSETYIAAGDVMGKILLYDLQSREVKTSRWAFRTSKINAISWKPAEKGANEEEIEEDLVATGSLDTNIFIYSVKRPMKIIKALNAHKDGVNNLLWETPSTLVSSGADACIKRWNVVLE | soluble
9 | MSSKWITSLFKSVVLTAALVTPFAASAFTEGTDYMVLEKPIPNADKTLIKVFSYACPFCYKYDKAVTGPVSDKVADLVTFTPFHLETKGEYGKQASEVFAVLIAKDKAAGISLFDAKSQFKKAKFAWYAAYHDKKERWSDGKDPAAFIKTGLDAAGMSQADFEAALKDPAVQETLEKWKAAYDVAKIQGVPAYVVNGKYLIYTKNIKSIDSMAELVRELATKK | not soluble
10 | MSSLTDKTRNGALKRNLLRQMLKASVFKFGEFQLKSGQISPIYIDLRECFGHPGLLMLISEAISKQVEISEVQYAGVLGIPYAALPYASVAAGNYLKKPLLIVRKEAKSYGTKKLIEGLYQPNDRLILIEDVVTTGGSILDVVKVLHTENLVASDVFCILDREQGGRQKLQDAGVTLHSLLDMQTVLTFLYSTGAIGDEQWHGIVQALNLPYTSPTKLEINSELENLSSLPYVENVRTPLAERESLTESALIKKILGIMRRKKSNLCLAVDYTTVEQCLQMIELAGPFVLAIKLHADAITDFNEEFTRKLTTMANDMDFIIFEDRKFGDTGNTNLLQLTGAQKIANWADVVTVHAVQGSDSIAGVFRKLAKDPTYRLSGVLLIAQLSTKGSLTALEGYTETAVKIANENRDVISGFITQTRVSACSDLLNWTPGVNLDAKSDSAGQQWRGVDEAIEVQQNDIIIVGRGVTSSSEPVQQLKRYRQIAWDALTRSDDSI | not soluble
11 | MSSRKQGSQPRGQQSAEEENFKKPTRSNMQRSKMRGASSGKKTAGPQQKNLEPALPGRWGGRSAENPPSGSVRKTRKNKQKTPGNGDGGSTSEAPQPPRKKRARADPTVESEEAFKNRMEVKVKIPEELKPWLVEDWDLVTRQKQLFQLPAKKNVDAILEEYANCKKSQGNVDNKEYAVNEVVAGIKEYFNVMLGTQLLYKFERPQYAEILLAHPDAPMSQVYGAPHLLRLFVRIGAMLAYTPLDEKSLALLLGYLHDFLKYLAKNSASLFTASDYKVASAEYHRKALLEHHHHHH | not soluble
12 | MSSSDAFWRMFANKNKGKSNTRSAFQVVKEEQPSTSTEPDDKKPLHHEIAGEMIKNPAKGKRKRVQIKNDEYEQLMMLGVPVRVPRGLSLYSTQKLMIVRILTALKNSQNVLGESPTGSGKTMALLASTCAWLKQYIDEKRESKEKCEIHGFSGKTQVVFTNDIGIPLESKVYEEPPEEEEFIEPVPVKNDKLFEAQWEHDFTPHTPGETPPVTLKEELEPVKKPEPVETKCTCLPRVRIYYGTRTHKQIAQVVKEFSRLPYAKILKHTILASREQSCINPAARKHADISQYCKEVNSAHSIGCSFKSAMKPRFEKALPLRDHLERNGTVVFDMEKIVETLAISYPQLCPYFSTNRILTQDADIIFCPFSYLVDPLIRNSSDVQIRNSIVILDEAHNIEDTCREAASFSFTEKELDDSILSLRIKRKAVDTELDKTGIEEKLLHIPDREVHLKEFRGHLLYLEHLILEMLRWIRQVSTEAKTPARGGQDGVKTCTISSANLFTSLTDPENGVDLFTPPLTPKHAAVAASFSAITKHNEPEMQYFDAFKPSSTAIVCIEKWLYFQSYFGNQQYQSTYRLNISIEPINQNGRFNHTFDADVSMSTSFGNPRPTTTRSSAGPRNMQYKEENAWLADAAADGDDWKDPSMSETGHKPISEGCKTTISLWCMSPALSFFDAFNETRSIVLASGTLCPMDTLKTELGMEFKQQVEGDQVINKDNIFAAVLPIGPFGNRIQCTYRNTSDPESSFYCELGAIIKYVCSNVPAGILCFLPSYRVLDQLKQCMIRNSTMRQIEMKKVVLYEPRRSSELTSVMDQFDAAIFDPSRFGANINGSLMFAVFRGKVSEGIDFADDRARVVISVGIPYPNAMDDQVNAKKLYNDQNSKEKGILTGDEWYTTQAYRALNQALGRCLRHKNDWGAMLMIDERLERQTGNLVGGASSARVSKWIRAQLKSYPSFKEFNANFREFIQRRHAVEKAKKENFCE | not soluble
13 | MSSSESPAGIAQIGVTGLAVMGSNIARNFARHGYTVAVHNRSVAKTDALLKEHSSDGKFVRSETIPEFLAALEKPRRVLIMVKAGEATDADAVINELADAMEPGDIIIDGGNALYTDTMRREKAMRERGLHFVGAGISGGEEGALNGPSIMPGGPAESYQSLGPLLEEISAHVDGVPCCTHIGPDGSGHFVKMVHNGIEYSDMQLIGEAYQLMRDGLGLTAPAIADVFTEWNNGDLDSYLVEITAEVLRQTDAKTGKPLVDVIVDRAEQKGTGRWTVKSALDLGVPVTGIAEAVFARALSGSVGQRSAASGLASGKLGEQPADPATFTEDVRQALYASKIVAYAQGFNQIQAGSAEFGWDITPGDLATIWRGGCIIRAKFLNHIKEAFDASPNLASLIVAPYFRGAVESAIDSWRRVVSTAAQLGIPTPGFSSALSYYDALRTARLPAALTQAQRDFFGAHTYGRIDEPGKFHTLWSSDRTEVPV | soluble
14 | MSSTKRPASRADEITQELVRMIQLADARRIAKLPTEMELAAQLGISRPVIRESLSRLESLNMVTRRQGSGLYIVAPEKRSPEALVLLEQSAPLSPRSIAEAMSVRAILELETGRLAALNHRQVDLDRMAAEIERLAATGARGLEAAEADEAFHRALSDAAGNVTLSQVLDLFLRLSWRRRVEYFSQPKLGKQSIIEHQEILNAVASGDPDAVSTAIRTHLNSAERFWDSKYVKKKS | not soluble
15 | MSSVKDTMTTQVATVSPNQTIQEAASLMKQHNVGAIPVVEQGVLKGMLTDRDIALRTTAQGRDGQTPVSEVMSTELVSGNPNMSLEDASQLMAQHQIRRLPIVDQNNLVGIVALGDLAVNQMSNESAGSALTNISHQNIH | not soluble
